Experimental data reported in the RNAGym collection of RNA variant scans (doi:10.7554/elife.80360).

B1: HDV Ribozyme (parent)
chain: GGCCGGCAUGGUCCCAGCCUCCUCGCUGGCGCCGGCUGGGCAACAUUCCGAGGGGACCGUCCCCUCGGUAAUGGCGAAUGGGACCCA

Variants of: B1
Experiment: self-cleavage, relative activity (ratio to wild type); higher = more cleavage; co-transcriptional

Variant	self-cleavage
GGCCGGCAUGGUCCCAGUCUCCUCGCUGGCGCCGGCUGGGCAACCUUCCGAGGGGACCGUCCCCUCGGUAAUGGCGAAUGGGACCCA [C18U A45C]	0.0755
GGCCGGCAUGGUCCCAGUCUCCUCGCUGGCGCCGGCUGGGCAACGUUCCGAGGGGACCGUCCCCUCGGUAAUGGCGAAUGGGACCCA [C18U A45G]	0.306
GGCCGGCAUGGUCCCAGUCUCCUCGCUGGCGCCGGCUGGGCAACAUUCCGAGGGGACCGUCCCCUCGGUAGUGGCGAAUGGGACCCA [C18U A71G]	0.504
GGCCGGCAUGGUCCCAGGCUCCUCGCUGGCGCCGGCAGGGCAACAUUCCGAGGGGACCGUCCCCUCGGUAAUGGCGAAUGGGACCCA [C18G U37A]	0.111
GGCCGGCAUGGUCCCAGGCUCCUCGCUGGCGCCGGCUGGGCAACAUUCCGAGGGGACCGUCCCCUCGGUAAUAGCGAAUGGGACCCA [C18G G73A]	0
GGCCGGCAUGGUCCCAGGCUCCUCGCUGGCGCCGUCUGGGCAACAUUCCGAGGGGACCGUCCCCUCGGUAAUGGCGAAUGGGACCCA [C18G G35U]	0.0415
GGCCGGCAUGGUCCCAGGCUCCUCGCUGGCGCCGACUGGGCAACAUUCCGAGGGGACCGUCCCCUCGGUAAUGGCGAAUGGGACCCA [C18G G35A]	0.156
GGCCGGCAUGGUCCCAGGCUCCUCGCUGGCGCCGGCUGGGCAACAUUCCGAGUGGACCGUCCCCUCGGUAAUGGCGAAUGGGACCCA [C18G G53U]	0.332
GGCCGGCAUGGUCCCAGGCUCCUCGCUGGCGCCGGCUGGGCAACAUUCCGAGGGUACCGUCCCCUCGGUAAUGGCGAAUGGGACCCA [C18G G55U]	0.0811
GGCCGGCAUGGUCCCAGUCUCCUCGCUGGCGACGGCUGGGCAACAUUCCGAGGGGACCGUCCCCUCGGUAAUGGCGAAUGGGACCCA [C18U C32A]	0.166
GGCCGGCAUGGUCCCAGUCUCCUCGCUGGCGCCGGCUGGGCUACAUUCCGAGGGGACCGUCCCCUCGGUAAUGGCGAAUGGGACCCA [C18U A42U]	0.0627
GGCCGGCAUGGUCCCAGUCUCCUCGCUGGCGCCGGCUGGGCGACAUUCCGAGGGGACCGUCCCCUCGGUAAUGGCGAAUGGGACCCA [C18U A42G]	0.151
GGCCGGCAUGGUCCCAGGCUCCUCGCGGGCGCCGGCUGGGCAACAUUCCGAGGGGACCGUCCCCUCGGUAAUGGCGAAUGGGACCCA [C18G U27G]	0.128
GGCCGGCAUGGUCCCAGGCUCCUCGCUGGCGCCGGCUGGGCAACAUUCCGAGGGGACCGUCCCCUCGGUAAUGGCGAAUGAGACCCA [C18G G81A]	0.277
GGCCGGCAUGGUCCCAGGCUCCUCGCUGGCGCCGGCUGGGCAACAUUCCGAGGGGACCGUCCCCUCGGUAAUGGCGAAUGCGACCCA [C18G G81C]	0
GGCCGGCAUGGUCCCAGGCUCCUCGCUGGCGCCGGCUGGCCAACAUUCCGAGGGGACCGUCCCCUCGGUAAUGGCGAAUGGGACCCA [C18G G40C]	0.0852
GGCCGGCAUGGUCCCAGGCUCCUCGCUGGCGCCGGCUGGUCAACAUUCCGAGGGGACCGUCCCCUCGGUAAUGGCGAAUGGGACCCA [C18G G40U]	0.0489
GGCCGGCAUGGUCCCAGGCUCCUCGCUGGCGCCGGCUGGACAACAUUCCGAGGGGACCGUCCCCUCGGUAAUGGCGAAUGGGACCCA [C18G G40A]	0.175
GGCCGGCAUGGUCCCAGGCUCCUCGCUGGCGCCGGCUGUGCAACAUUCCGAGGGGACCGUCCCCUCGGUAAUGGCGAAUGGGACCCA [C18G G39U]	0.0554
GGCCGGCAUGGUCCCAGGCUCCUCGCUGGCGCCGGCUGGGCAACAUUCCGAGGGGACCGUCCCCUCGGUAAUGGCGAAUUGGACCCA [C18G G80U]	0.0621
GGCCGGCAUGGUCCCAGGCUCCUCGCUGGCGCCGGCUGGGCAACAUUCCGAGGGGACCGUCCCCUCGGUAAUGGCGAAUAGGACCCA [C18G G80A]	0.0563
GGCCGGCAUGGUCCCAGGCUCCUCGCUGGCGCCGGCUGGGCAACAUUCCGAGGGGACCGUCCCCUCGGUAAUGGCGAAUGGAACCCA [C18G G82A]	0.0462

Variant	self-cleavage
GGCCGGCAUGGUCCCAGGCUCCUCGCUGGCGCCGGCUAGGCAACAUUCCGAGGGGACCGUCCCCUCGGUAAUGGCGAAUGGGACCCA [C18G G38A]	0.0978
GGCCGGCAUGGUCCCAGGCUCCUCGCUGGCGCCGGCUGGGCAACAUUCCGAGGGGACCGUCCCCUCGUUAAUGGCGAAUGGGACCCA [C18G G68U]	0.0978
GGCCGGCAUGGUCCCAGGCUCCUCGCUGGCGCCGGCUGGGCAACAUUCCGAGGGGACCGUCCCCUCGCUAAUGGCGAAUGGGACCCA [C18G G68C]	0.119
GGCCGGCAUGGUCCCAGGCUCCUCGCUGGCGCCGGCUGGGCAACAUUCCGAGGGGACCGUCCCCUCGAUAAUGGCGAAUGGGACCCA [C18G G68A]	0.0504
GGCCGGCAUGGUCCCAGUCUCCUCGCUGGCGCCGGCUGGGCAACAUUCCGUGGGGACCGUCCCCUCGGUAAUGGCGAAUGGGACCCA [C18U A51U]	0.701
GGCCGGCAUGGUCCCAGUCUCCUAGCUGGCGCCGGCUGGGCAACAUUCCGAGGGGACCGUCCCCUCGGUAAUGGCGAAUGGGACCCA [C18U C24A]	0.123
GGCCGGCAUGGUCCCAGUCUCCUGGCUGGCGCCGGCUGGGCAACAUUCCGAGGGGACCGUCCCCUCGGUAAUGGCGAAUGGGACCCA [C18U C24G]	0.0665
GGCCGGCAUGGUCCCAGGCUCCUCGCUGGCGCCGGCUGGGCAACAGUCCGAGGGGACCGUCCCCUCGGUAAUGGCGAAUGGGACCCA [C18G U46G]	0.0692
GGCCGGCAUGGUCCCAGGCUCCUCGCUGGCGCCGGCUGGGCAACAAUCCGAGGGGACCGUCCCCUCGGUAAUGGCGAAUGGGACCCA [C18G U46A]	0.145
GGCCGGCAUGGUCCCAGUCUCCUCGCUGGGGCCGGCUGGGCAACAUUCCGAGGGGACCGUCCCCUCGGUAAUGGCGAAUGGGACCCA [C18U C30G]	0.0583
GGCCGGCAUGGUCCCAGUCUCCUCGCUGGAGCCGGCUGGGCAACAUUCCGAGGGGACCGUCCCCUCGGUAAUGGCGAAUGGGACCCA [C18U C30A]	0.156
GGCCGGCAUGGUCCCAGUCUCCUCGCUGGCGCCGGCUGGGCAACAUUCCGAGGGGACCGUCCCCUCGGUAAUGGCGACUGGGACCCA [C18U A78C]	0.185
GGCCGGCAUGGUCCCAGGCUCCUCGCUGGCGCCGGCUGGGCAACAUUCCGAAGGGACCGUCCCCUCGGUAAUGGCGAAUGGGACCCA [C18G G52A]	0.156
GGCCGGCAUGGUCCCAGGCUCCUCGCUGGCGCCCGCUGGGCAACAUUCCGAGGGGACCGUCCCCUCGGUAAUGGCGAAUGGGACCCA [C18G G34C]	0.104
GGCCGGCAUGGUCCCAGGCUCCUCGCUGGCGCCUGCUGGGCAACAUUCCGAGGGGACCGUCCCCUCGGUAAUGGCGAAUGGGACCCA [C18G G34U]	0
GGCCGGCAUGGUCCCAGGCUCCUCGCUGGCGCCGGCUGGGCAACAUUCCGAGGGGACCGUCCCCUCGGUAAUGGCGAAGGGGACCCA [C18G U79G]	0.133
GGCCGGCAUGGUCCCAGUCUCGUCGCUGGCGCCGGCUGGGCAACAUUCCGAGGGGACCGUCCCCUCGGUAAUGGCGAAUGGGACCCA [C18U C22G]	0.0462
GGCCGGCAUGGUCCCAGUCUCAUCGCUGGCGCCGGCUGGGCAACAUUCCGAGGGGACCGUCCCCUCGGUAAUGGCGAAUGGGACCCA [C18U C22A]	0.27
GGCCGGCAUGGUCCCAGGCUCCUCGCUGGCGCCGGCUGGGCAACAUUCCGAGGGGACCGUCCCCUCGGUAAUGGCUAAUGGGACCCA [C18G G76U]	0.227
GGCCGGCAUGGUCCCAGGCUCCUCGCUGGCGCCGGCUGGGCAACAUUCCGAGGGGACCGUCCCCUCGGUAAUGGCAAAUGGGACCCA [C18G G76A]	0.111
GGCCGGCAUGGUCCCAGUCUGCUCGCUGGCGCCGGCUGGGCAACAUUCCGAGGGGACCGUCCCCUCGGUAAUGGCGAAUGGGACCCA [C18U C21G]	0.151
GGCCGGCAUGGUCCCAGUCUCCUCGCUGGCGCCGGCUGGGCAUCAUUCCGAGGGGACCGUCCCCUCGGUAAUGGCGAAUGGGACCCA [C18U A43U]	0.138

Variant	self-cleavage
GGCCGGCAUGGUCCCAGUCUCCUCGCUGGCGCCGGCUGGGCAACAUUCCGAGGGGACCGUCCCCUCGGUAAUGGCGAAUGGGACCCA [C18U]	0.732
GGCCGGCAUGGUCCCAGGCUCCUCGCUGGCGCCGGCUGGGCAACAUGCCGAGGGGACCGUCCCCUCGGUAAUGGCGAAUGGGACCCA [C18G U47G]	0.256
GGCCGGCAUGGUCCCAGUCUCCUCGCUGGCGCCGGCUGGGCAACAUUCCGAGGGGACCGUCCCCUCGGUAAUGGCGAAUGGGUCCCA [C18U A83U]	0.243
GGCCGGCAUGGUCCCAGGCUCCACGCUGGCGCCGGCUGGGCAACAUUCCGAGGGGACCGUCCCCUCGGUAAUGGCGAAUGGGACCCA [C18G U23A]	0
GGCCGGCAUGGUCCCAGGCUCCCCGCUGGCGCCGGCUGGGCAACAUUCCGAGGGGACCGUCCCCUCGGUAAUGGCGAAUGGGACCCA [C18G U23C]	0.227
GGCCGGCAUGGUCCCAGGCUCCUCGCUGGCGCCGGCUGGGCAACAUUCCGAGGGGACCGUCCCCCCGGUAAUGGCGAAUGGGACCCA [C18G U65C]	0.175
GGCCGGCAUGGUCCCAGGCGCCUCGCUGGCGCCGGCUGGGCAACAUUCCGAGGGGACCGUCCCCUCGGUAAUGGCGAAUGGGACCCA [C18G U20G]	0.185
GGCCGGCAUGGUCCCAGGCCCCUCGCUGGCGCCGGCUGGGCAACAUUCCGAGGGGACCGUCCCCUCGGUAAUGGCGAAUGGGACCCA [C18G U20C]	0
GGCCGGCAUGGUCCCAGGCUCCUCGCUGGCGCCGGCUGGGCAACAUUCCGAGGGGACCGUCCCCUCCGUAAUGGCGAAUGGGACCCA [C18G G67C]	0.203
GGCCGGCAUGGUCCCAGGCUCCUCGCUGGCGCCGGCUGGGCAACAUUCCGAGGGGACCGUCCCCUCUGUAAUGGCGAAUGGGACCCA [C18G G67U]	0.101
GGCCGGCAUGGUCCCAGGCUCCUCGCUGGCGCCGGCUGGGCAACAUUCCGAGGGGACCGUCCCCUCGGUAAUGACGAAUGGGACCCA [C18G G74A]	0.0449
GGCCGGCAUGGUCCCAGGCUCCUCGCUGGCGCCGGCUGGGCAACAUUCCGAGGGGACCGUCCCCUCGGUAAUGCCGAAUGGGACCCA [C18G G74C]	0.142
GGCCGGCAUGGUCCCAGGCUCCUCGCUGGCGCCGGCUGGGCAACAUUCCGAGGGGACCGUCCCCUCGGUAAUGUCGAAUGGGACCCA [C18G G74U]	0.116
GGCCGGCAUGGUCCCAGGCUCCUCGCUGGCGCCGGCUGGGCAACAUUCCGAGGGGACCGGCCCCUCGGUAAUGGCGAAUGGGACCCA [C18G U60G]	0.0791
GGCCGGCAUGGUCCCAGGCUCCUCGCUGGCGCCGGCUGGGCAACAUUCCGAGGGGACCGUCCCCUCGGUAAGGGCGAAUGGGACCCA [C18G U72G]	0
GGCCGGCAUGGUCCCAGGCUCCUCGCUGGCGCCGGCUGGGCAACAUUCCGAGGGGACCGUCCCCUCGGUAACGGCGAAUGGGACCCA [C18G U72C]	0
GGCCGGCAUGGUCCCAGUCUCCUCGCUGGCGCCGGCUGGGCAACAUUCCGAGGGGACCGUCCCCUCGGUAAUGGCGGAUGGGACCCA [C18U A77G]	0.623
GGCCGGCAUGGUCCCAGUCUCCUCGCUGGCGCCGGCUGGGCAACAUUCCGAGGGGACCGUCCCCUCGGUAAUGGCGUAUGGGACCCA [C18U A77U]	0.0678
GGCCGGCAUGGUCCCAGUCUCCUCGCUGGCGCCGGCUGGGCAACAUUCCGAGGGGACCGUCCCCUCGGUAAUGGCGCAUGGGACCCA [C18U A77C]	0.342
GGCCGGCAUGGUCCCAGUCUCCUCGGUGGCGCCGGCUGGGCAACAUUCCGAGGGGACCGUCCCCUCGGUAAUGGCGAAUGGGACCCA [C18U C26G]	0.869
